The values that follow come from article PMC10953559, “Native Capillary Electrophoresis–Mass Spectrometry of Near 1 MDa Non‐Covalent GroEL/GroES/Substrate Protein Complexes” (Advanced Science, 2024).

To fix the notation:
B2: double-ring (DR) mutant GroEL 14-mer (mutant GroEL14) (natural protein, E. coli, UniProt P0A6F5 2-548, looked up)
chain: AAKDVKFGNDARVKMLRGVNVLADAVKVTLGPKGRNVVLDKSFGAPTITKDGVSVAREIELEDKFENMGAQMVKEVASKANDAAGDGTTTATVLAQAIITEGLKAVAAGMNPMDLKRGIDKAVTAAVEELKALSVPASDSKAIAQVGTISANSDETVGKLIAEAMDKVGKEGVITVEDGTGLQDELDVVEGMQFDRGYLSPYFINKPETGAVELESPFILLADKKISNIREMLPVLEAVAKAGKPLLIIAEDVEGEALATLVVNTMRGIVKVAAVKAPGFGDRRKAMLQDIATLTGGTVISEEIGMELEKATLEDLGQAKRVVINKDTTTIIDGVGEEAAIQGRVAQIRQQIEEATSDYDREKLQERVAKLAGGVAVIKVGAATEVEMKEKKARVEDALHATRAAVEEGVVAGGGVALIRVASKLADLRGQNEDQNVGIKVALRAMEAPLRQIVLNAGEEPSVVANTVKGGDGNYGYNAATEEYGNMIDMGILDPTKVTRSALQYAASVAGLMITTEAMVTDLPKNDAADLGAAGGMGGMGGMGGMC
notes: GroEL, E. coli, UniProtKB P0A6F5, with four mutations made by QuikChange from the WT GroEL gene; the measured mass fits 14 monomers with the N-terminal methionine cleaved; numbers count the first methionine; also called DR GroEL14; source: E. coli BL21 (DE3) Gold, purified from the soluble fraction (chromatography, size exclusion); copies: 14

Series [1] concerns the molecule itself. Nature of the series: native MS; capillary electrophoresis online with native ESI-MS (CE-MS) of the oligomer; bare fused silica capillary, BGE 50 mM ammonium acetate pH 6.7, 20 kV reverse polarity, cartridge 15 °C, in-source desolvation 100 V; sample diluted in 50 mM Tris-HCl pH 7.5, 50 mM KCl, 15 mM MgCl2.
For series [2], the target named is B2. Nature of the series: native MS; CE-MS; GroEL14 (6 µM) and GroES7 (6 µM) injected; BGE 50 mM ammonium acetate pH 6.7 with 10 to 50 µM ATPγS and 15 to 75 µM Mg2+. The note with it: both partners purified.

B1: N-acetyl neuraminic acid aldolase, native tetramer (NanA4) (enzyme, E. coli, UniProt P0A6L4 2-297, looked up)
chain: ATNLRGVMAALLTPFDQQQALDKASLRRLVQFNIQQGIDGLYVGGSTGEAFVQSLSEREQVLEIVAEEAKGKIKLIAHVGCVSTAESQQLAASAKRYGFDAVSAVTPFYYPFSFEEHCDHYRAIIDSADGLPMVVYNIPALSGVKLTLDQINTLVTLPGVGALKQTSGDLYQMEQIRREHPDLVLYNGYDEIFASGLLAGADGGIGSTYNIMGWRYQGIVKALKEGDIQTAQKLQTECNKVIDLLIKTGVFRGLKTVLHYMDVVSVPLCRKPFGPVDEKYLPELKALAQQLMQERG
notes: N-acetyl neuraminic acid aldolase NanA, E. coli, WT monomer; the theoretical mass quoted for the detected tetramer (129 849.09 Da) is that with the N-terminal methionine cleaved; also called tetrameric NanA4; source: E. coli BL21 (DE3) Gold, purified from the soluble fraction (chromatography, size exclusion)
As for B1, the stoichiometry N (commonly the number of molecules, sites or subunits per partner or assembly) in series [1] was 4 subunits.
Same read-out and setting: then B2, with 14 subunits.

B3: single-ring (SR) mutant GroEL 7-mer (GroEL7) (natural protein, E. coli, UniProt P0A6F5 2-548, looked up)
chain: AAKDVKFGNDARVKMLRGVNVLADAVKVTLGPKGRNVVLDKSFGAPTITKDGVSVAREIELEDKFENMGAQMVKEVASKANDAAGDGTTTATVLAQAIITEGLKAVAAGMNPMDLKRGIDKAVTAAVEELKALSVPCSDSKAIAQVGTISANSDETVGKLIAEAMDKVGKEGVITVEDGTGLQDELDVVEGMQFDRGYLSPYFINKPETGAVELESPFILLADKKISNIREMLPVLEAVAKAGKPLLIIAEDVEGEALATLVVNTMRGIVKVAAVKAPGFGDRRKAMLQDIATLTGGTVISEEIGMELEKATLEDLGQAKRVVINKDTTTIIDGVGEEAAIQGRVAQIRQQIEEATSDYDREKLQERVAKLAGGVAVIKVGAATEVEMKEKKARVEDALHATRAAVEEGVVAGGGVALIRVASKLADLRGQNEDQNVGIKVALRAMEAPLEQIVLNCGEAPAAVANTVKGGDGNYGYNAATEEYGNMIDMGILDPTKVTRSALQYAASVAGLMITTECMVTDLPKNDAADLGAAGGMGGMGGMGGMM
notes: GroEL, E. coli, UniProtKB P0A6F5, with four mutations made by QuikChange from the WT GroEL gene; theoretical mass quoted for 7 monomers with the N-terminal methionine cleaved; numbers count the first methionine; also called SR GroEL7; mutant SR; source: E. coli BL21 (DE3) Gold, purified from the soluble fraction (chromatography, size exclusion)
Take B3: the “stoichiometry N” value in series [1] worked out at 7 subunits.

B4: co-chaperonin GroES 7-mer (GroES7) (natural protein, E. coli, UniProt P0A6F9 1-97, looked up)
chain: MNIRPLHDRVIVKRKEVETKSAGGIVLTGSAAAKSTRGEVLAVGNGRILENGEVKPLDVKVGDIVIFNDGYGVKSEKIDNEEVLIMSESDILAIVEA
notes: GroES, E. coli, WT monomer; the measured mass fits the non-truncated form (N-terminal methionine kept); also called apo-GroES7; source: E. coli BL21 (DE3) Gold, purified from the soluble fraction (chromatography, size exclusion)
For the molecule B4, the “stoichiometry N” value came out at 1 GroES7 per GroEL14 in series [2] and 7 subunits in series [1].
